Test results taken from paper PMC2990340.

Target: T1, CsdE-myc-His6 (E. coli K12 MG1655), P0AGF2
T1 chain: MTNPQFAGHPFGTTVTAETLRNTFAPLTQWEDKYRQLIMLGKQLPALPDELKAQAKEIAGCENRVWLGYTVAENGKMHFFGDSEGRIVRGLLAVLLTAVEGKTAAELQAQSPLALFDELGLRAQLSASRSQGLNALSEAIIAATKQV
Assay: affinity purification with mass spectrometry
Details: remark: other sources report otherwise

stoichiometry N: 2
B1: CsdE-myc-His6, P0AGF2 1-147 (natural protein)
chain: T1 chain
